The record followed here is patent US9120851B2, “Human antibodies to human angiopoietin-like protein 4” (Regeneron Pharmaceuticals, Inc., priority 2009, dated 2015).

This assay concerns the target T1, bovine LPL (Bos taurus, UniProt P11151).
T1 sequence (P11151 29-478): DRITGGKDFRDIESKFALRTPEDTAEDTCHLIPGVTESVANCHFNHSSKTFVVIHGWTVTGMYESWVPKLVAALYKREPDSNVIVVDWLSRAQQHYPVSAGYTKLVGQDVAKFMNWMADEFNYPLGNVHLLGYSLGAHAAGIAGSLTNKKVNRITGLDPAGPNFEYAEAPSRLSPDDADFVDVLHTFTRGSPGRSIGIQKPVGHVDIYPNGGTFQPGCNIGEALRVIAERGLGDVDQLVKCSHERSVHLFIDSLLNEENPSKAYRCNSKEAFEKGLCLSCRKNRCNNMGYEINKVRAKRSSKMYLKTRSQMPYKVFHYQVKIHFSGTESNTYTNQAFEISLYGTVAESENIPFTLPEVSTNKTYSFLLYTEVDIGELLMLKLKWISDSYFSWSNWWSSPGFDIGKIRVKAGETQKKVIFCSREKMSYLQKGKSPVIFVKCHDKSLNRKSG
Description: Dose-response of ANGPTL4 protein in the LPL assay. Particulars: full dose-response of ANGPTL4 protein, determined for each experiment. The class given is biochemical. The protocol: Briefly, 2 nM bovine LPL, 0.25 μM human ApoCII (a cofactor of LPL), 2 mg/mL BSA and 1.6 mM CaCl2, were premixed in a 96-well assay plate. Either hANGPTL4-His or hANGPTL4-mFc protein was added to the Apo/LPL mixture to a final concentration of 10 nM and 2 nM, respectively. The Apo/LPL/ANGPTL4 protein mixtures were then added together with serially diluted anti-hANGPTL4 antibodies with a starting concentration of 300 nM (for inhibition of hANGPTL4-His) or 100 nM (for inhibition of hANGPTL4-mFc) and incubated at room temperature for 30 minutes (final volume 50 μl). Following the incubation, 200 μl of reconstituted lipase substrate, 1-trinitrophenyl-amino-dodecanoyl-2-pyrendecanoyl-3-0-hexadecyl-sn-glycerol (LS-A, Progen), was added to the antibody mixture and incubated at 37° C. for two hours. Fluorescence was then measured at 342 nm/400 nm (excitation/emission) using a FlexStation® 3 Microplate Reader (Molecular Devices, CA). Fluorescence is directly proportional to LPL activity. Control I: a rabbit polyclonal antibody specific for hANGPTL4 (BioVendor). […] NT: not tested. […]

A word on the EC50: it is the midpoint of the concentration-response curve. Higher therefore signals a less potent agent.

B1: His-MfANGPTL4 (26-148): cynomolgus monkey ANGPTL4 N-terminal region (residues 26-148) with an N-terminal hexa-histidine tag (SEQ ID NO:488) (protein)
chain: MHHHHHHGPVQSKSPRFASWDEMNVLAHGLLQLGQGLREHAERTRSQLNALERRLSACGSACQGTEGSTALPLAPESRVDPEVLHSLQTQLKAQNSRIQQLFHKVAQQQRHLEKQHLRIQRLQSQVGLLD
On to B1, for which a half-maximal response (EC50) required 3.89 nM. This lies in the single-digit nanomolar range.
